# Measured values reported in publication PMC5178350.
# Molecular target: Haloferax volcanii deoxyhypusine synthase (T7-His-DHS) (Haloferax volcanii)
# Experiment: SEC; Sephacryl S-200 HR gel filtration column equilibrated with buffer A (20 mM Tris-HCl pH 8, 2 M NaCl), flow rate 0.3 mL/min; oligomer size from the estimated molecular weight
substance,measurement,value
Haloferax volcanii deoxyhypusine synthase (T7-His-DHS) (enzyme),stoichiometry N,4
